Test results from patent US20210380703A1 (RIGEL PHARMACEUTICALS, published 2021).
Numbering of substitutions follows the chain as printed. One block for each binder: values may come before it.

Biological target: ACVR2A on primary human myotubes (human, UniProt P27037 20-513)
Assay: cell-based or functional assay

ACVR2A on primary human myotubes, sequence (P27037 20-513): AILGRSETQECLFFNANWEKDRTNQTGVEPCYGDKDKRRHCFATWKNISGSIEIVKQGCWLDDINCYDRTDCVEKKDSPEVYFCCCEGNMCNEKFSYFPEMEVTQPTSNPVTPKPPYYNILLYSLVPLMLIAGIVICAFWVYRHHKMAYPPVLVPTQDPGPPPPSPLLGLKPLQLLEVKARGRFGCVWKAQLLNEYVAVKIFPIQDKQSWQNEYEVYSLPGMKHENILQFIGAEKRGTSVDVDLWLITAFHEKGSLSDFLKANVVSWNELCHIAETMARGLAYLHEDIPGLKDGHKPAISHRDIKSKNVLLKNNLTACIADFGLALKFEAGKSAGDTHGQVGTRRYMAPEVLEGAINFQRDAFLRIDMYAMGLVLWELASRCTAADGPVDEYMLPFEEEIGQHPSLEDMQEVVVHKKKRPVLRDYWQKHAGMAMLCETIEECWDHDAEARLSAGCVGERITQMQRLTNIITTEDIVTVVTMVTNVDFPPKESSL

Phospho-SMAD3 Human Skeletal Muscle GDF8: 0.0325
B1: 369_F09 (antibody, V domains shown)
VH: EVQLLESGGGLVQPGGSLRLSCAASGFTFSSYGMHWVRQAPGKGLEWVAGINYNGGYTSYADSVKGRFTISRDNSKNTLYLQMNSLRAEDTAVYYCARGATWHDTHLDYWGQGTLVTVSS
VL: DIQMTQSPSSLSASVGDRVTITCRASQSILTYVNWYQQKPGKAPKLLIYAATSRASGVPSRFSGSGSGTDFTLTISSLQPEDFATYYCQQSYDSPLTFGGGTKVEIK

Phospho-SMAD3 Human Skeletal Muscle GDF8: 0.0057
B2: 373_G08 (antibody, V domains shown)
VH: B1 VH with S30D, G33S, H35N, A49S, G50N, T101N, H106A
VL: B1 VL with V33L, R54L

Phospho-SMAD3 Human Skeletal Muscle GDF8: 0.0346
B3: 375_H05 (antibody, V domains shown)
VH: B1 VH with G33S, H35N, A49S, G50N, S59G, T101N, H106A
VL: B1 VL with T31S, S94T

Phospho-SMAD3 Human Skeletal Muscle GDF8: 0.595
B4: 376_F01 (antibody, V domains shown)
VH: B1 VH with S31D, G33S, H35N, T58K, T101N, H106A
VL: not shown

Phospho-SMAD3 Human Skeletal Muscle GDF8: 0.126
B5: 374_D10 (antibody, V domains shown)
VH: B1 VH with G50S, T101N
VL: B1 VL with S94N

Phospho-SMAD3 Human Skeletal Muscle GDF8: 1.11
B6: 374_C01 (antibody, V domains shown)
VH: B1 VH with S30D, H35N, A49S, G55S, T58K, T101N, H106A
VL: B1 VL with V33L, D93E, S94T

Phospho-SMAD3 Human Skeletal Muscle GDF8: 0.0129
B7: 373_H03 (antibody, V domains shown)
VH: B1 VH with G33S, H35N, A49S, G55S, T58K, T101N, H106A
VL: B1 VL with T31S, V33L, A51T, D93E, S94N

Phospho-SMAD3 Human Skeletal Muscle GDF8: 0.0048
B8: 373_C07 (antibody, V domains shown)
VH: B1 VH with S30D, G33S, H35N, G55S, T101N
VL: B1 VL with V33L, L47V, D93E, S94T

Phospho-SMAD3 Human Skeletal Muscle GDF8: 0.0111
B9: 370_C06 (antibody, V domains shown)
VH: B1 VH with G33S, H35N, G50N, T58K
VL: B1 VL with T52S, R54L, A55Q, D93S, S94T

Phospho-SMAD3 Human Skeletal Muscle GDF8: 0.0177
B10: 374_D05 (antibody, V domains shown)
VH: B1 VH with S30D, G33S, H35N, A49S, G55S, S59G, T101N
VL: B1 VL with V33L, S94T

Phospho-SMAD3 Human Skeletal Muscle GDF8: 0.0066
B11: 370_F12 (antibody, V domains shown)
VH: B1 VH with S31D, G33S, H35N, G50N, S59G
VL: B1 VL with T31S, V33L, T52S, R54L, A55Q

Phospho-SMAD3 Human Skeletal Muscle GDF8: 0.0303
B12: 369_H12 (antibody, V domains shown)
VH: B1 VH with G33S, H35N, T58K
VL: B1 VL with L30V, L47V

Phospho-SMAD3 Human Skeletal Muscle GDF8: 0.0544
B13: 376_F06 (antibody, V domains shown)
VH: B1 VH with H35N, A49S, S59G, T101N
VL: B1 VL with L47V, D93E, S94T

Phospho-SMAD3 Human Skeletal Muscle GDF8: 0.0182
B14: 372_B09 (antibody, V domains shown)
VH: B1 VH with G33S, H35N, A49S, G50S, G55S
VL: B1 VL with V33L, D93E, S94T

Phospho-SMAD3 Human Skeletal Muscle GDF8: 0.0044
B15: 370_C07 (antibody, V domains shown)
VH: B1 VH with G33S, H35N, G50N, T58K
VL: B1 VL with T31S, V33L, A55H, D93E

Phospho-SMAD3 Human Skeletal Muscle GDF8: 0.0605
B16: 376_C08 (antibody, V domains shown)
VH: B1 VH with S30D, G33S, H35N, G55S, S59G, T101N
VL: not shown

Phospho-SMAD3 Human Skeletal Muscle GDF8: 0.034
B17: 374_G08 (antibody, V domains shown)
VH: B1 VH with S30D, G33S, H35N, A49S, T101N, H106A
VL: B1 VL with L47V

Phospho-SMAD3 Human Skeletal Muscle GDF8: 0.0091
B18: 375_E10 (antibody, V domains shown)
VH: B1 VH with G33S, H35N, A49S, T101N, H106A
VL: B1 VL with T31S, V33L, L47V, S94N

Phospho-SMAD3 Human Skeletal Muscle GDF8: 0.0311
B19: 371_F09 (antibody, V domains shown)
VH: B1 VH with G33S, H35N
VL: B1 VL with V33L, S94N

Phospho-SMAD3 Human Skeletal Muscle GDF8: 0.0136
B20: 370_E04 (antibody, V domains shown)
VH: B1 VH with G33S, H35N, G50N, T58K, S59G
VL: B1 VL with V33L, A51V, R54L, A55H, D93E, S94T

Phospho-SMAD3 Human Skeletal Muscle GDF8: 0.0069
B21: 373_F07 (antibody, V domains shown)
VH: B1 VH with G33S, H35N, A49S, G55S, T58K
VL: B1 VL with T31S, V33L, R54L, D93E, S94T

Phospho-SMAD3 Human Skeletal Muscle GDF8: 0.189
B22: 374_C09 (antibody, V domains shown)
VH: B1 VH with S30D, H35N, A49S, G50S, T58K, S59G, T101N
VL: B1 VL with L30V, T31S, V33L, L47V, D93E, S94L

Phospho-SMAD3 Human Skeletal Muscle GDF8: 0.0469
B23: 375_A12 (antibody, V domains shown)
VH: B1 VH with G33S, H35N, A49S, G55S, T58K, T101N, H106A
VL: B1 VL with T31S, V33L, L47V, A51V, D93E, S94T

Phospho-SMAD3 Human Skeletal Muscle GDF8: 0.027
B24: 374_C12 (antibody, V domains shown)
VH: B1 VH with G33S, H35N, T58K, T101N, H106A
VL: B1 VL with V33L, L47V, Y92D, D93N

Phospho-SMAD3 Human Skeletal Muscle GDF8: 0.0052
B25: 375_G05 (antibody, V domains shown)
VH: B1 VH with G33S, H35N, T101N, H106A
VL: B1 VL with L30V, T31S, V33L, A51V

Phospho-SMAD3 Human Skeletal Muscle GDF8: 0.014
B26: 375_A07 (antibody, V domains shown)
VH: B1 VH with S30D, G33S, H35N, A49S, G50S, G55S, S59G, T101N
VL: B1 VL with V33L, S94T

Phospho-SMAD3 Human Skeletal Muscle GDF8: 0.0076
B27: 371_B01 (antibody, V domains shown)
VH: B1 VH with S30D, G33S, H35N, A49S, G50N, G55S, S59G
VL: B1 VL with T31S, R54L, S94L

Phospho-SMAD3 Human Skeletal Muscle GDF8: 0.0076
B28: 375_F02 (antibody, V domains shown)
VH: B1 VH with G33S, H35N, G50S, G55S, T101N
VL: B1 VL with T31S, V33L

Phospho-SMAD3 Human Skeletal Muscle GDF8: 0.0374
B29: 371_E12 (antibody, V domains shown)
VH: B1 VH with S30D, G33S, H35N, A49S, G55S, T58K
VL: B1 VL with T31S, V33L, R54L, S94T

Phospho-SMAD3 Human Skeletal Muscle GDF8: 0.0165
B30: 370_D03 (antibody, V domains shown)
VH: B1 VH with G33S, H35N, G50S
VL: B1 VL with L30I, V33L, S94L

Phospho-SMAD3 Human Skeletal Muscle GDF8: 0.027
B31: 374_B03 (antibody, V domains shown)
VH: B1 VH with S30D, G33S, H35N, A49S, T101N, H106A
VL: B1 VL with V33L, L47V

Phospho-SMAD3 Human Skeletal Muscle GDF8: 0.0308
B32: 369_H08 (antibody, V domains shown)
VH: B1 VH with G33S, H35N, G55S, T58K
VL: B1 VL with T31S, L47V, R54L, D93E
